Results as given in US20250034212A1, “PEPTIDE” (PEPTIDREAM INC., priority 2021, published 2025).
Starred links: 1 amine or outer side, 2 acyl side, 3 side chain; linkers in the order of their positions; H or OH if unused. Positions of bridges follow the written chain, without caps; N, C: chain ends. Non-standard residues stand in square brackets, D forms with d. KCOmeglumine = N6-(methyl-((2S,3R,4R,5R)-2,3,4,5,6-pentahydroxyhexyl)carbamoyl)-L-lysine, CN(C[C@H](O)[C@@H](O)[C@H](O)[C@H](O)CO)C(=O)NCCCC[C@H](N[*:1])C(=O)[*:2]; KCOpipzaa = N6-(4-(carboxymethyl)piperazine-1-carbonyl)-L-lysine, O=C(NCCCC[C@H](N[*:1])C(=O)[*:2])N1CCN(CC(=O)[*:3])CC1; OCOmPEG10000 = methoxypolyethyleneglycol (10000) carbonate on Lys NZ; Trp(7-aza) = N[C@@H](Cc1c[nH]c2ncccc12)C(=O)O; 1Nal = N[C@@H](Cc1cccc2ccccc12)C(=O)O; Gly(NCH2CH2Ph) = O=C(O)CNCCc1ccccc1; 4Pal = N[C@@H](Cc1ccncc1)C(=O)O

B1: TGFb1_016 (peptide)
peptide: {CH2CO}-F[1Nal]VVNV[4Pal]DD[Gly(NCH2CH2Ph)]V[1Nal]YH[KCOmeglumine]CG-NH2
modifications: thioether N-16
SMILES: CC(C)[C@@H]1NC(=O)CN(CCc2ccccc2)C(=O)[C@H](CC(=O)O)NC(=O)[C@H](CC(=O)O)NC(=O)[C@H](Cc2ccncc2)NC(=O)[C@H](C(C)C)NC(=O)[C@H](CC(N)=O)NC(=O)[C@H](C(C)C)NC(=O)[C@H](C(C)C)NC(=O)[C@H](Cc2cccc3ccccc23)NC(=O)[C@H](Cc2ccccc2)NC(=O)CSC[C@@H](C(=O)NCC(N)=O)NC(=O)[C@H](CCCCNC(=O)N(C)C[C@H](O)[C@@H](O)[C@H](O)[C@H](O)CO)NC(=O)[C@H](Cc2c[nH]cn2)NC(=O)[C@H](Cc2ccc(O)cc2)NC(=O)[C@H](Cc2cccc3ccccc23)NC1=O
notes: cyclic peptide; C-terminal G is a linker
B2: TGFb1_018 (peptide)
peptide: {CH2CO}-F[Trp(7-aza)]VVNV[4Pal]D[KCOmeglumine][Gly(NCH2CH2Ph)]V[1Nal]YHVCG-NH2
modifications: thioether N-16
SMILES: CC(C)[C@@H]1NC(=O)CN(CCc2ccccc2)C(=O)[C@H](CCCCNC(=O)N(C)C[C@H](O)[C@@H](O)[C@H](O)[C@H](O)CO)NC(=O)[C@H](CC(=O)O)NC(=O)[C@H](Cc2ccncc2)NC(=O)[C@H](C(C)C)NC(=O)[C@H](CC(N)=O)NC(=O)[C@H](C(C)C)NC(=O)[C@H](C(C)C)NC(=O)[C@H](Cc2c[nH]c3ncccc23)NC(=O)[C@H](Cc2ccccc2)NC(=O)CSC[C@@H](C(=O)NCC(N)=O)NC(=O)[C@H](C(C)C)NC(=O)[C@H](Cc2c[nH]cn2)NC(=O)[C@H](Cc2ccc(O)cc2)NC(=O)[C@H](Cc2cccc3ccccc23)NC1=O
notes: as for B1
B3: TGFb1_017 (peptide)
peptide: {CH2CO}-F[Trp(7-aza)]VVNV[4Pal]D[KCOpipzaa][Gly(NCH2CH2Ph)]V[1Nal]YHVCG-NH2
modifications: thioether N-16
SMILES: CC(C)[C@@H]1NC(=O)CN(CCc2ccccc2)C(=O)[C@H](CCCCNC(=O)N2CCN(CC(=O)O)CC2)NC(=O)[C@H](CC(=O)O)NC(=O)[C@H](Cc2ccncc2)NC(=O)[C@H](C(C)C)NC(=O)[C@H](CC(N)=O)NC(=O)[C@H](C(C)C)NC(=O)[C@H](C(C)C)NC(=O)[C@H](Cc2c[nH]c3ncccc23)NC(=O)[C@H](Cc2ccccc2)NC(=O)CSC[C@@H](C(=O)NCC(N)=O)NC(=O)[C@H](C(C)C)NC(=O)[C@H](Cc2c[nH]cn2)NC(=O)[C@H](Cc2ccc(O)cc2)NC(=O)[C@H](Cc2cccc3ccccc23)NC1=O
notes: as for B1
B4: TGFb1_032 (peptide)
peptide: {CH2CO}-F[1Nal]VVNV[4Pal]DD[Gly(NCH2CH2Ph)]V[1Nal]YH[KCOpipzaa]CGK(OCOmPEG10000)-NH2
modifications: thioether N-16
notes: cyclic peptide; linker G K(OCOmPEG10000) at the C-terminus
B5: TGFb1_027 (peptide)
peptide: {CH2CO}-F[1Nal]VVNV[4Pal]DD[Gly(NCH2CH2Ph)]V[1Nal]YHECG-NH2
modifications: thioether N-16
SMILES: CC(C)[C@@H]1NC(=O)CN(CCc2ccccc2)C(=O)[C@H](CC(=O)O)NC(=O)[C@H](CC(=O)O)NC(=O)[C@H](Cc2ccncc2)NC(=O)[C@H](C(C)C)NC(=O)[C@H](CC(N)=O)NC(=O)[C@H](C(C)C)NC(=O)[C@H](C(C)C)NC(=O)[C@H](Cc2cccc3ccccc23)NC(=O)[C@H](Cc2ccccc2)NC(=O)CSC[C@@H](C(=O)NCC(N)=O)NC(=O)[C@H](CCC(=O)O)NC(=O)[C@H](Cc2c[nH]cn2)NC(=O)[C@H](Cc2ccc(O)cc2)NC(=O)[C@H](Cc2cccc3ccccc23)NC1=O
notes: as for B1
B6: TGFb1_021 (peptide)
peptide: {CH2CO}-F[1Nal]VVNV[4Pal]DE[Gly(NCH2CH2Ph)]V[1Nal]YH[KCOpipzaa]CG-NH2
modifications: thioether N-16
SMILES: CC(C)[C@@H]1NC(=O)CN(CCc2ccccc2)C(=O)[C@H](CCC(=O)O)NC(=O)[C@H](CC(=O)O)NC(=O)[C@H](Cc2ccncc2)NC(=O)[C@H](C(C)C)NC(=O)[C@H](CC(N)=O)NC(=O)[C@H](C(C)C)NC(=O)[C@H](C(C)C)NC(=O)[C@H](Cc2cccc3ccccc23)NC(=O)[C@H](Cc2ccccc2)NC(=O)CSC[C@@H](C(=O)NCC(N)=O)NC(=O)[C@H](CCCCNC(=O)N2CCN(CC(=O)O)CC2)NC(=O)[C@H](Cc2c[nH]cn2)NC(=O)[C@H](Cc2ccc(O)cc2)NC(=O)[C@H](Cc2cccc3ccccc23)NC1=O
notes: as for B1
B7: TGFb1_028 (peptide)
peptide: {CH2CO}-F[1Nal]V[KCOmeglumine]NV[4Pal]DD[Gly(NCH2CH2Ph)]V[1Nal]YHECG-NH2
modifications: thioether N-16
SMILES: CC(C)[C@@H]1NC(=O)CN(CCc2ccccc2)C(=O)[C@H](CC(=O)O)NC(=O)[C@H](CC(=O)O)NC(=O)[C@H](Cc2ccncc2)NC(=O)[C@H](C(C)C)NC(=O)[C@H](CC(N)=O)NC(=O)[C@H](CCCCNC(=O)N(C)C[C@H](O)[C@@H](O)[C@H](O)[C@H](O)CO)NC(=O)[C@H](C(C)C)NC(=O)[C@H](Cc2cccc3ccccc23)NC(=O)[C@H](Cc2ccccc2)NC(=O)CSC[C@@H](C(=O)NCC(N)=O)NC(=O)[C@H](CCC(=O)O)NC(=O)[C@H](Cc2c[nH]cn2)NC(=O)[C@H](Cc2ccc(O)cc2)NC(=O)[C@H](Cc2cccc3ccccc23)NC1=O
notes: as for B1
B8: TGFb1_029 (peptide)
peptide: {CH2CO}-F[1Nal]V[KCOmeglumine]NV[4Pal]DE[Gly(NCH2CH2Ph)]V[1Nal]YHECG-NH2
modifications: thioether N-16
SMILES: CC(C)[C@@H]1NC(=O)CN(CCc2ccccc2)C(=O)[C@H](CCC(=O)O)NC(=O)[C@H](CC(=O)O)NC(=O)[C@H](Cc2ccncc2)NC(=O)[C@H](C(C)C)NC(=O)[C@H](CC(N)=O)NC(=O)[C@H](CCCCNC(=O)N(C)C[C@H](O)[C@@H](O)[C@H](O)[C@H](O)CO)NC(=O)[C@H](C(C)C)NC(=O)[C@H](Cc2cccc3ccccc23)NC(=O)[C@H](Cc2ccccc2)NC(=O)CSC[C@@H](C(=O)NCC(N)=O)NC(=O)[C@H](CCC(=O)O)NC(=O)[C@H](Cc2c[nH]cn2)NC(=O)[C@H](Cc2ccc(O)cc2)NC(=O)[C@H](Cc2cccc3ccccc23)NC1=O
notes: as for B1

Key:
[1] = target: T1, recombinant human TGF-β1 (R&D systems) (human, UniProt P01137 279-390); assay: cell-based or functional assay
[2] = target: T1, recombinant human TGF-β1 (R&D systems); assay: SPR, TGF-β1 immobilised, single cycle kinetics
Description: Subsequently, 50 μL of 60 mM EDC solution (Global Life Science Technologies Japan Co., Ltd.) and 50 μL of 650 mM NHS solution (Global Life Science Technologies Japan Co., Ltd.) were mixed. Next, the reaction was carried out at a flow rate of 10 μL/min for 420 seconds. Then, 150 μL of 0.2 μM TGF-β solution diluted in 10 mM acetic acid solution (pH 5.0) was prepared and reacted at a flow rate of 10 μL/min for 420 seconds to immobilize TGF-β on the CM3 sensor chip. TGF-β was human-derived TGF-β1 or β2 (recombinant human TGF-β1, 2) and was obtained from R&D systems. After immobilization, capping was performed by reacting with 1.0 M ethanolamine aqueous solution (Global Life Science Technologies Japan Co., Ltd.) at a flow rate of […] for 420 seconds.
A liquid prepared by dissolving each peptide at 10 mM in DMSO solution was diluted with running buffer to prepare a peptide-dissolved solution at a final concentration of 10 μM. Subsequently, 50 nM, 25 nM, 12.5 nM, 5 nM, and 2.5 nM peptide solutions were prepared. Using the above samples, the kinetics of each peptide against TGF-β was obtained by SPR measurement.
The kinetics evaluation model was Single Cycle Kinetics, and curve fitting was performed using Biacore T200 Evaluation Software Version 3.0 (Global Life Science Technologies Japan Co., Ltd.). The binding of various peptides to TGF-β was evaluated by performing least-squares curve fitting on the obtained sensorgram to calculate the KD value.

[3] = target: T1, recombinant human TGF-β1 (R&D systems); assay: cell-based or functional assay; remark: listed apart in the source

T1 sequence (P01137 279-390 limits assumed): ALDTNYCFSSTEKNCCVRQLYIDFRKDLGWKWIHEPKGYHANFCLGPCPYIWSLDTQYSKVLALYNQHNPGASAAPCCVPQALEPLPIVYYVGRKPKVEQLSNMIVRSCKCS

Binder	SBE reporter % inhibition, peptide 0.075 nM [1] [%]	SBE reporter % inhibition, peptide 0.75 nM [1] [%]	SBE reporter % inhibition, peptide 7.5 nM [1] [%]	SBE reporter % inhibition, peptide 75.0 nM [1] [%]	Kd [2] [nM]	SBE reporter % inhibition, peptide 0.062 nM [3] [%]	SBE reporter % inhibition, peptide 0.185 nM [3] [%]	SBE reporter % inhibition, peptide 0.56 nM [3] [%]	SBE reporter % inhibition, peptide 1.7 nM [3] [%]	SBE reporter % inhibition, peptide 5.0 nM [3] [%]	SBE reporter % inhibition, peptide 15.0 nM [3] [%]
B1	6.1	61	97.6	100	0.97						
B2	22.2	61	97.6	99.9	1.42						
B3	21.7	60.2	97.2	100	1.07						
B4					3.08	2.67	7.18	1.11	4.77	54	91.3
B5					1.11	2.53	9.14	28.4	59.4	84.9	95.5
B6					1.37	10.2	26.9	58.9	87.8	97.1	98.8
B7					1.31	0.94	6.17	20.4	47.6	73.9	91.7
B8					0.94	12	16.9	32.4	63.7	85.8	96.8
